Data from US6780974B2, “Synthetic DNA encoding an orange seapen-derived green fluorescent protein with codon preference of mammalian expression systems and biosensors” (Cellomics, Inc., priority 2001, dated 2004).

Key:
Format in all cases: cell-based
[1] = tested on: COS1 cells; assay: Fluorescence of COS1 cells transiently transfected with humanized versus wild type PtFP DNA (ARRAYSCAN II); conditions: transient transfection
Source text: The difference at the nucleotide level (versus codon level) is that the hPtFP open reading frame (including the stop codon) contains 720 nucleotides, whereas the PtFP open reading frame (including the stop codon) contains 717 nucleotides. It will be appreciated by those skilled in the art, that without counting the extra valine introduced into hPtFP of the present invention, there are 166 nucleotide differences between the 717 nucleotides compared, or 23.15 percent difference (or 76.85% identity). If the stop codon is excluded in this comparison, there are 165 nucleotide differences in the 714 nucleotides compared, or 23.10 percent difference (or 76.9% identity). […]
To compare the expression of wild type Ptilosarcus gurneyi fluorescent protein DNA with humanized Ptilosarcus gurneyi green fluorescent protein synthetic DNA as described above, an expression vector for the wild type Ptilosarcus gurneyi DNA was constructed by cloning the wild type PtFP into the expression vector M2, and thus, these two expression vectors under comparison differed only in their coding regions. […] The purified DNA preps were quantitated by reading the optic absorption at 260 nm (nanometers) with a HP8453 UV—visible spectrophotometer (Agilent Technologies, Palo Alto, Calif., USA) and calculated based on 1 O.D.=[…] DNA. […]

[2] = tested on: HEK293 cells; assay: Percentage of hPtFP-positive cells in stably transfected HEK293 mixed population during passage (growth / toxicity); conditions: for toxicity to host cells: stably transfected mammalian host cells (HEK293)
Protocol: The cells were co-transfected with the hPtFP construct and pSV2-neo (Cat #37149, ATCC, Manassas, Va., USA) with FUGENE 6 transfection reagent (Roche Molecular Biochemicals, Indianapolis, Ind., USA) following the manufacturer's instructions. Two days after transfection, cells were treated with 0.4 mg/ml (milligram/milliliter) G418 in normal growth medium. After treating with G418 for two weeks, drug resistant cells were isolated or pooled. A mixture of stably transfected HEK293 mixed population (in which about 30% of the cells expressing hPtFP of this invention) were plated out in 96 cell micro plates. After 2, 4, or 6 days incubation, the cells were fixed with 3.7% formaldehyde for 20 minutes at room temperature (25° Centigrade). The percentage of positive cells was quantitated with ARRAYSCAN II instrument, as described herein.
To compare the growth rates of cells expressing or not expressing hPtFP, a mixture of stably transfected HEK293 mixed population (in which about 30% of the cells expressing hPtFP of this invention) were plated out in 96-well micro plates. After 2, 4, or 6 days incubation, the cells were fixed with 3.7% (percent) formaldehyde for twenty minutes at room temperature (25 degrees Centigrade). The percentage of positive cells was quantitated with ARRAYSCAN II instrument, as described herein.

[3] = tested on: COS1 cells; assay: In situ absorption and emission spectra of live COS1 cells expressing hPtFP; conditions: in COS-1 cells
Protocol: Forty-eight hours after initial transfection with the synthetic green fluorescent protein DNA of the present invention, COS1 cells were trypsinized and were kept in suspension. The absorption and emission spectra of the live cells expressing the hPtFP of the present invention were then measured, as shown in FIG. 2.

B1: hPtFP DNA: synthetic DNA encoding hPtFP with codons favored for mammalian expression systems (nucleic acid)
DNA: AAGCTTGCCACCATGGTGAACCGGAACGTGCTGAAGAACACCGGCCTGAAGGAGATCATGAGCGCCAAGGCCAGCGTGGAGGGCATCGTGAACAACCACGTGTTCAGCATGGAGGGCTTCGGCAAGGGCAACGTGCTGTTCGGCAACCAGCTGATGCAGATCCGGGTGACCAAGGGCGGCCCTCTGCCCTTCGCCTTCGACATCGTGAGCATCGCCTTCCAGTACGGCAACCGGACCTTCACCAAGTATCCCGACGACATCGCCGACTACTTCGTGCAGAGCTTCCCTGCCGGCTTCTTCTACGAGCGGAACCTGCGGTTCGAGGACGGCGCCATCGTGGACATCCGGAGCGACATCAGCCTGGAGGACGACAAGTTCCACTACAAGGTGGAGTACCGCGGCAACGGCTTCCCTAGCAACGGCCCTGTGATGCAGAAGGCCATCCTGGGCATGGAGCCCAGCTTCGAGGTGGTGTACATGAACAGCGGCGTGCTGGTGGGCGAGGTGGACCTGGTGTACAAGCTGGAGAGCGGCAACTACTACAGCTGCCACATGAAGACCTTCTACCGGAGCAAGGGCGGCGTGAAGGAGTTCCCTGAGTACCTATTCATCCACCACCGGCTGGAGAAGAACTACGTGGAGGAGGGCAGCTTCGTGGAGCAGCACGAGACCGCCATCGCCCAGCTGACCACCATCGGCAAGCCTCTGGGCAGCCTGCACGAGTGGGTGTAAAGCGGCCGCAAGCTTGCCACCATGGTGAACCGGAACGTGCTGAAGAACACCGGCCTGAAGGAGATCATGAGCGCCAAGGCCAGCGTGGAGGGCATCGTGAACAACCACGTGTTCAGCATGGAGGGCTTCGGCAAGGGCAACGTGCTGTTCGGCAACCAGCTGATGCAGATCCGGGTGACCAAGGGCGGCCCTCTGCCCTTCGCCTTCGACATCGTGAGCATCGCCTTCCAGTACGGCAACCGGACCTTCACCAAGTATCCCGACGACATCGCCGACTACTTCGTGCAGAGCTTCCCTGCCGGCTTCTTCTACGAGCGGAACCTGCGGTTCGAGGACGGCGCCATCGTGGACATCCGGAGCGACATCAGCCTGGAGGACGACAAGTTCCACTACAAGGTGGAGTACCGCGGCAACGGCTTCCCTAGCAACGGCCCTGTGATGCAGAAGGCCATCCTGGGCATGGAGCCCAGCTTCGAGGTGGTGTACATGAACAGCGGCGTGCTGGTGGGCGAGGTGGACCTGGTGTACAAGCTGGAGAGCGGCAACTACTACAGCTGCCACATGAAGACCTTCTACCGGAGCAAGGGCGGCGTGAAGGAGTTCCCTGAGTACCTATTCATCCACCACCGGCTGGAGAAGAACTACGTGGAGGAGGGCAGCTTCGTGGAGCAGCACGAGACCGCCATCGCCCAGCTGACCACCATCGGCAAGCCTCTGGGCAGCCTGCACGAGTGGGTGTAAAGCGGCCGC
- number and brightness of expressing cells compared with wild type PtFP DNA (visual observation) [1]: more hPtFP expressing cells and brighter cells than the wild type
- fluorescent signal compared with wild type Ptilosarcus gurneyi green fluorescent protein ([1]; identical amount of DNA, forty hours post-transfection, intensity in nuclear area (FIG. 3)): stronger fluorescent signals than the wild type
- toxicity to host cells [2]: does not have toxic effects on the host cells

B2: hPtFP: full length humanized Ptilosarcus gurneyi green fluorescent protein, 239 amino acid residues, valine added at position 2 (protein)
chain: MVNRNVLKNTGLKEIMSAKASVEGIVNNHVFSMEGFGKGNVLFGNQLMQIRVTKGGPLPFAFDIVSIAFQYGNRTFTKYPDDIADYFVQSFPAGFFYERNLRFEDGAIVDIRSDISLEDDKFHYKVEYRGNGFPSNGPVMQKAILGMEPSFEVVYMNSGVLVGEVDLVYKLESGNYYSCHMKTFYRSKGGVKEFPEYHFIHHRLEKTYVEEGSFVEQHETAIAQLTTIGKPLGSLHEWV
- percentage of positive cells during cell passage ([2]; HEK293 mixed population, about 30% expressing hPtFP, 2, 4 or 6 days incubation, no selection (FIG. 5)): did not change
- toxicity to host cells [2]: not toxic to the cells
- absorption and emission spectra compared with wildtype Ptilosarcus gurneyi [3]: unchanged
